Results reported in the supplement of paper PMC10724198.
± gives the standard deviation of the averaged measurements.

Columns and labels:
Saccharomyces cerevisiae [1] = test: protein stability index of tFT-peptide fusion (C-terminal peptide) (PSI (0-1 scale)); higher = more stable (slower turnover)
Description: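 MPS profiling in S. cerevisiae of the tFT-X12 degron library: putative degron peptides plus stable controls, 12 aa, fused to the C-terminus of a sfGFP-mCherry timer. Cells are FACS-sorted into 8 mCherry/sfGFP bins and deep-sequenced. PSI runs from 0 (unstable) to 1 (stable). Backgrounds are wild type, das1Δ and doa10Δ at 30 °C, and wild type, das1Δ, cdc34-1 and cdc53-1 at 37 °C; 2-3 technical replicates each.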

Saccharomyces cerevisiae [2] = test: as above; conditions: genetic background: wild type; temperature: 30 C
[3] = genetic background: cdc34-1, temperature: 37 C
[4] = genetic background: cdc53-1, temperature: 37 C
[5] = genetic background: das1 deletion, temperature: 30 C
[6] = genetic background: das1 deletion, temperature: 37 C
[7] = genetic background: doa10 deletion, temperature: 30 C
[8] = genetic background: wild type, temperature: 30 C
[9] = genetic background: wild type, temperature: 37 C
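Also: PSI is a weighted mean of sequencing reads over stability bins, variants kept only with over 10 reads, mCherry proximal and sfGFP distal, peptide attached via GGGS linker.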

Row | Sequence | protein stability index (Saccharomyces cerevisiae [1]; [3]) | protein stability index (Saccharomyces cerevisiae [1]; [4]) | protein stability index (Saccharomyces cerevisiae [1]; [5]) | protein stability index (Saccharomyces cerevisiae [1]; [6]) | protein stability index (Saccharomyces cerevisiae [1]; [7]) | protein stability index (Saccharomyces cerevisiae [1]; [8]) | protein stability index (Saccharomyces cerevisiae [1]; [9]) | protein stability index (Saccharomyces cerevisiae [2])
1 | SVMTFVFFISAF | 0.257 ± 0.013 | 0.397 ± 0.021 | 0.243 ± 0.039 | 0.438 ± 0.021 | 0.212 ± 0.0043 | 0.238 ± 0.037 | 0.396 ± 0.0055 | 0.344 ± 0.1
2 | SWRRCLSSIPVA | 0.383 ± 0.0085 | 0.416 ± 0.012 | 0.319 ± 0.026 | 0.457 ± 0.0086 | 0.276 ± 0.0056 | 0.303 ± 0.035 | 0.438 ± 0.012 | 0.425 ± 0.013
3 | SWVVLVSFLSWR | 0.2561 ± 0.0015 | 0.3502 ± 0.0028 | 0.245 ± 0.031 | 0.4285 ± 0.003 | 0.233 ± 0.0082 | 0.232 ± 0.032 | 0.424 ± 0.031 | 0.357 ± 0.0065
4 | SWWGDVVWFVVC | 0.555 ± 0.059 | 0.649 ± 0.015 | 0.501 ± 0.015 | 0.7029 ± 0.0032 | 0.176 ± 0.018 | 0.199 ± 0.03 | 0.381 ± 0.0062 | 0.282 ± 0.03
5 | SYGNGIPIRMLH | 0.656 ± 0.035 | 0.707 ± 0.026 | 0.641 ± 0.013 | 0.728 ± 0.013 | 0.204 ± 0.013 | 0.217 ± 0.013 | 0.422 ± 0.05 | 0.329 ± 0.014
6 | SYLPSHVYIFLL | 0.275 ± 0.0049 | 0.309 ± 0.02 | 0.273 ± 0.032 | 0.4417 ± 0.0022 | 0.097 ± 0.0087 | 0.0758 ± 0.019 | 0.129 ± 0.034 | 0.128 ± 0.019
7 | TFLCSSLALAVI | 0.455 ± 0.03 | 0.509 ± 0.032 | 0.338 ± 0.022 | 0.4985 ± 0.0021 | 0.317 ± 0.023 | 0.334 ± 0.014 | 0.4789 ± 0.00054 | 0.405 ± 0.042
8 | TGYRYVGRFFVV | 0.653 ± 0.037 | 0.723 ± 0.039 | 0.588 ± 0.016 | 0.691 ± 0.016 | 0.155 ± 0.0032 | 0.163 ± 0.02 | 0.329 ± 0.011 | 0.248 ± 0.01
9 | TLCFRLSWVLLV | 0.0812 ± 0.028 | 0.15 ± 0.013 | 0.144 ± 0.02 | 0.22 ± 0.014 | 0.0335 ± 0.006 | 0.0265 ± 0.0028 | 0.0672 ± 0.022 | 0.0528 ± 0.037
10 | TLNKDILIIKCA | 0.382 ± 0.023 | 0.42 ± 0.036 | 0.286 ± 0.035 | 0.45 ± 0.013 | 0.135 ± 0.022 | 0.175 ± 0.022 | 0.214 ± 0.049 | 0.212 ± 0.0051
11 | TNFVVRLRFVLF | 0.534 ± 0.021 | 0.5485 ± 0.00062 | 0.464 ± 0.016 | 0.522 ± 0.02 | 0.29 ± 0.015 | 0.295 ± 0.0087 | 0.419 ± 0.011 | 0.366 ± 0.029
12 | TVRVVMLRLLFT | 0.452 ± 0.027 | 0.52 ± 0.025 | 0.346 ± 0.035 | 0.528 ± 0.0076 | 0.309 ± 0.02 | 0.33 ± 0.024 | 0.493 ± 0.018 | 0.418 ± 0.021
13 | VAFLWVAFCFSG | 0.205 ± 0.0023 | 0.355 ± 0.044 | 0.224 ± 0.03 | 0.3883 ± 0.0035 | 0.178 ± 0.019 | 0.203 ± 0.016 | 0.366 ± 0.021 | 0.276 ± 0.046
14 | VAIMSIWLVYML | 0.349 ± 0.0086 | 0.465 ± 0.0057 | 0.341 ± 0.031 | 0.497 ± 0.016 | 0.331 ± 0.0076 | 0.333 ± 0.0079 | 0.4919 ± 0.0028 | 0.454 ± 0.0058
15 | VALAVRVVVCGA | 0.0316 ± 0.014 | 0.0354 ± 0.0067 | 0.122 ± 0.039 | 0.106 ± 0.0073 | 0.0887 ± 0.0097 | 0.108 ± 0.028 | 0.0779 ± 0.01 | 0.142 ± 0.041
16 | VAWCVWCWWWAV | 0.188 ± 0.0033 | 0.322 ± 0.0061 | 0.209 ± 0.021 | 0.351 ± 0.0049 | 0.06 ± 0.016 | 0.0674 ± 0.015 | 0.0852 ± 0.013 | 0.131 ± 0.047
17 | VCLFWLFLWRIL | 0.208 ± 0.018 | 0.167 ± 0.027 | 0.3 ± 0.027 | 0.374 ± 0.013 | 0.217 ± 0.014 | 0.182 ± 0.0051 | 0.241 ± 0.016 | 0.266 ± 0.0063
18 | VCLWVEVLIVLG | 0.0839 ± 0.023 | 0.205 ± 0.056 | 0.136 ± 0.03 | 0.25 ± 0.014 | 0.106 ± 0.031 | 0.129 ± 0.021 | 0.183 ± 0.0078 | 0.209 ± 0.011
19 | VCPWGYCSEWGF | 0.772 ± 0.047 | 0.82244 ± 0.00034 | 0.697 ± 0.023 | 0.8015 ± 0.0031 | 0.692 ± 0.043 | 0.687 ± 0.014 | 0.7887 ± 0.006 | 0.759 ± 0.013
20 | VFCSVGVSLFFG | 0.335 ± 0.014 | 0.496 ± 0.027 | 0.289 ± 0.04 | 0.5138 ± 0.0017 | 0.258 ± 0.015 | 0.284 ± 0.023 | 0.5118 ± 0.0026 | 0.411 ± 0.021

Row | Sequence | protein stability index (Saccharomyces cerevisiae [1]; [3]) | protein stability index (Saccharomyces cerevisiae [1]; [4]) | protein stability index (Saccharomyces cerevisiae [1]; [5]) | protein stability index (Saccharomyces cerevisiae [1]; [6]) | protein stability index (Saccharomyces cerevisiae [1]; [7]) | protein stability index (Saccharomyces cerevisiae [1]; [8]) | protein stability index (Saccharomyces cerevisiae [1]; [9]) | protein stability index (Saccharomyces cerevisiae [2])
21 | VFFLFAVCSVLV | 0.0858 ± 0.0079 | 0.18 ± 0.0095 | 0.106 ± 0.029 | 0.2738 ± 0.0011 | 0.0641 ± 0.0032 | 0.0857 ± 0.033 | 0.248 ± 0.04 | 0.152 ± 0.02
22 | VFFLRVHFWSFF | 0.377 ± 0.01 | 0.487 ± 0.011 | 0.368 ± 0.029 | 0.53367 ± 0.00033 | 0.138 ± 0.015 | 0.168 ± 0.0092 | 0.246 ± 0.02 | 0.2826 ± 0.0026
23 | VFFLVHFHLPMF | 0.531 ± 0.053 | 0.57 ± 0.041 | 0.414 ± 0.031 | 0.561 ± 0.01 | 0.394 ± 0.0077 | 0.401 ± 0.019 | 0.536 ± 0.03 | 0.455 ± 0.05
24 | VFGFLVFYVCVR | 0.0903 ± 0.036 | 0.146 ± 0.021 | 0.153 ± 0.047 | 0.282 ± 0.014 | 0.135 ± 0.027 | 0.151 ± 0.026 | 0.248 ± 0.026 | 0.268 ± 0.0095
25 | VFHMFGWCGGAR | 0.728 ± 0.015 | 0.8 ± 0.0098 | 0.673 ± 0.012 | 0.77 ± 0.026 | 0.678 ± 0.042 | 0.673 ± 0.028 | 0.7518 ± 0.0011 | 0.764 ± 0.071
26 | VFLFSLCIRLSR | 0.122 ± 0.065 | 0.214 ± 0.0052 | 0.141 ± 0.031 | 0.289 ± 0.013 | 0.133 ± 0.013 | 0.147 ± 0.018 | 0.248 ± 0.011 | 0.204 ± 0.008
27 | VFLVFSVWVVYR | 0.2 ± 0.0081 | 0.304 ± 0.00039 | 0.233 ± 0.024 | 0.357 ± 0.018 | 0.2068 ± 0.00094 | 0.218 ± 0.026 | 0.343 ± 0.053 | 0.318 ± 0.027
28 | VFLVRTVTQISA | 0.289 ± 0.02 | 0.371 ± 0.033 | 0.291 ± 0.025 | 0.445 ± 0.015 | 0.219 ± 0.0079 | 0.254 ± 0.028 | 0.397 ± 0.016 | 0.304 ± 0.017
29 | VFRLFFLLVWLV | 0.079 ± 0.016 | 0.0744 ± 0.019 | 0.184 ± 0.023 | 0.25 ± 0.0081 | 0.1663 ± 0.00045 | 0.112 ± 0.026 | 0.13 ± 0.021 | 0.123 ± 0.014
30 | VFRLLALLWRFF | 0.606 ± 0.01 | 0.695 ± 0.018 | 0.62 ± 0.031 | 0.767 ± 0.029 | 0.323 ± 0.037 | 0.31 ± 0.022 | 0.42 ± 0.012 | 0.325 ± 0.056
31 | VFSLAFYLVLFF | 0.326 ± 0.063 | 0.349 ± 0.0065 | 0.346 ± 0.025 | 0.46 ± 0.015 | 0.415 ± 0.011 | 0.319 ± 0.029 | 0.418 ± 0.037 | 0.343 ± 0.056
32 | VFSRVLSVLLSA | 0.493 ± 0.011 | 0.514 ± 0.033 | 0.405 ± 0.029 | 0.5429 ± 0.0039 | 0.2377 ± 0.0015 | 0.282 ± 0.027 | 0.457 ± 0.024 | 0.386 ± 0.0071
33 | VFVGWVLCVVGG | 0.04576 ± 0.00018 | 0.161 ± 0.0032 | 0.143 ± 0.021 | 0.2762 ± 0.00081 | 0.0778 ± 0.03 | 0.132 ± 0.027 | 0.2377 ± 0.002 | 0.218 ± 0.045
34 | VFWLLVAVLRYW | 0.224 ± 0.018 | 0.247 ± 0.0056 | 0.243 ± 0.023 | 0.354 ± 0.0044 | 0.263 ± 0.011 | 0.222 ± 0.016 | 0.325 ± 0.013 | 0.307 ± 0.06
35 | VGVSVVMVVEVP | 0.0286 ± 0.0009 | 0.0328 ± 0.00097 | 0.0504 ± 0.005 | 0.0524 ± 0.0097 | 0.0409 ± 0.011 | 0.042 ± 0.0027 | 0.0384 ± 0.0064 | 0.0948 ± 0.012
36 | VGVVLWWVVLMV | 0.118 ± 0.014 | 0.181 ± 0.0027 | 0.184 ± 0.024 | 0.28 ± 0.0034 | 0.154 ± 0.012 | 0.16 ± 0.029 | 0.251 ± 0.0034 | 0.241 ± 0.017
37 | VGYHCIVGVIFL | 0.467 ± 0.031 | 0.491 ± 0.041 | 0.359 ± 0.036 | 0.545 ± 0.0059 | 0.326 ± 0.012 | 0.372 ± 0.013 | 0.512 ± 0.015 | 0.524 ± 0.081
38 | VIRFNSAPRFLV | 0.614 ± 0.054 | 0.7214 ± 0.0026 | 0.629 ± 0.026 | 0.7443 ± 0.0009 | 0.108 ± 0.031 | 0.125 ± 0.016 | 0.236 ± 0.0043 | 0.213 ± 0.047
39 | VIWIRMISFFVW | 0.192 ± 0.035 | 0.283 ± 0.024 | 0.2 ± 0.043 | 0.35 ± 0.013 | 0.174 ± 0.01 | 0.188 ± 0.034 | 0.346 ± 0.048 | 0.245 ± 0.015
